Assay results published in patent publication US20180086836A1 (GLENMARK PHARMACEUTICALS S A, published 2018).

How the values were obtained:
[1] = biological target: T1, mmCCR6/hsN-term (human/mouse hybrid); experiment: flow cytometry on transfected cells (Human Nter, Murine loops 1-3), 10 µg/ml, PE-labelled secondary antibody
T1 construct: also called mutant 5; mouse CCR6 receptor containing a human N-terminal region
T1 chain: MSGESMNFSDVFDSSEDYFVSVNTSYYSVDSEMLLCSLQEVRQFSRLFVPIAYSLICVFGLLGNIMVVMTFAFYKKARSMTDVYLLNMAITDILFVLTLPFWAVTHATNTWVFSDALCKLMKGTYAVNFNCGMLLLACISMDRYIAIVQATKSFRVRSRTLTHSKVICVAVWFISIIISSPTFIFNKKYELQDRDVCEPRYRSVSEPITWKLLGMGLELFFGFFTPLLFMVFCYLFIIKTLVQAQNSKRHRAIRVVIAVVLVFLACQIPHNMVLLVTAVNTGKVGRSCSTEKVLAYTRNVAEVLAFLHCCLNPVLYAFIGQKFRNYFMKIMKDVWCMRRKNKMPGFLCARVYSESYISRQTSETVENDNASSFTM
Protocol: (§1) Binding of the chimeric 4H11 antibody to human/mouse CCR6 hybrid constructs was evaluated by flow cytometry. Human/mouse CCR6 transfectants were counted and 2×10⁵ cells were incubated with 10 μg/ml of chimeric 4H11 antibody. Binding activity of 4H11 was detected with anti-human IgG-PE. To evaluate good expression of the human/mouse chimera on cells, two commercial antibodies directed against human and mouse CCR6 were used. Histogram plots show the geometric mean of fluorescence intensity (Y-axis) measured by flow cytometry
(§2) Binding of MAb to the surface of CCR6 transfected CHO cells was assessed using flow cytometry. 2×10⁵ cells were distributed in a 96 well V bottom plate and centrifuged for three minutes at 1300 rpm. Cells were collected and incubated with the appropriate mAb at a final concentration of 10 μg/ml in a volume of 50 μl in FACS buffer. Cells were incubated for 30 minutes on ice, washed twice and resuspended in 50 μl of PE-labelled secondary antibody diluted at 1/200 in FACS buffer. Cells were incubated for 15 minutes on ice, washed once, resuspended in 400 μl of FACS buffer and analyzed on the FACS instrument (Cyan, Beckman Coulter) in channel FL-2.

[2] = biological target: T2, hsCCR6/mmECL3 (human/mouse hybrid, UniProt P51684 1-374); experiment: flow cytometry on transfected cells (Human Nter, only loop 3 drawn black as murine), 10 µg/ml, PE-labelled secondary antibody
T2 construct: also called third mutant; pT1-hsCCR6/mmECL3
T2 chain: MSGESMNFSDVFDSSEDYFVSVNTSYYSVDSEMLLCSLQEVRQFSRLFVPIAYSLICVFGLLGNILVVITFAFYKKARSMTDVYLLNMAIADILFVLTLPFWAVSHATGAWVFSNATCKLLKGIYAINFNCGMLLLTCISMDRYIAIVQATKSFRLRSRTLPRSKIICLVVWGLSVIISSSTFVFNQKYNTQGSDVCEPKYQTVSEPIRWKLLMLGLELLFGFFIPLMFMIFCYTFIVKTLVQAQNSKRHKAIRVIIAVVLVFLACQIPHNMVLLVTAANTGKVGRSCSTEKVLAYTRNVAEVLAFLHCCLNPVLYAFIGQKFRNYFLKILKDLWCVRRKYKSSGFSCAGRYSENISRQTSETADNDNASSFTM
Protocol: as §1, §2

[3] = biological target: T3, mouse CCR6 (mouse, UniProt O54689 1-367); experiment: not given; premise of the human/mouse hybrid mapping
T3 construct: also called mmCCR6; murine CCR6
T3 sequence: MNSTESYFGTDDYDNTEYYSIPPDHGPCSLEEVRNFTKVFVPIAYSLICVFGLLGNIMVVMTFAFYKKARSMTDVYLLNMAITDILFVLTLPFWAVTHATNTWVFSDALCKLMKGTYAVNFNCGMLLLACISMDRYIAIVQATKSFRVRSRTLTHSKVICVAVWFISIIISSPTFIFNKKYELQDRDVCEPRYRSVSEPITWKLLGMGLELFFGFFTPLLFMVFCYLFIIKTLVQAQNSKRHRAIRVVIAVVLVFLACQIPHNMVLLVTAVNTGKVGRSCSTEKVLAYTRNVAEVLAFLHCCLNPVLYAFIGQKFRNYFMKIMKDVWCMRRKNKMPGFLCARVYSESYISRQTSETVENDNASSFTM

[4] = biological target: T4, hsCCR6/mmN-term (human/mouse hybrid, UniProt P51684 36-374); experiment: flow cytometry on transfected cells (Murine Nter, Human loops 1-3), PE-labelled secondary antibody
T4 construct: also called mutant 4; human CCR6 receptor containing a mouse N-terminal region
T4 chain: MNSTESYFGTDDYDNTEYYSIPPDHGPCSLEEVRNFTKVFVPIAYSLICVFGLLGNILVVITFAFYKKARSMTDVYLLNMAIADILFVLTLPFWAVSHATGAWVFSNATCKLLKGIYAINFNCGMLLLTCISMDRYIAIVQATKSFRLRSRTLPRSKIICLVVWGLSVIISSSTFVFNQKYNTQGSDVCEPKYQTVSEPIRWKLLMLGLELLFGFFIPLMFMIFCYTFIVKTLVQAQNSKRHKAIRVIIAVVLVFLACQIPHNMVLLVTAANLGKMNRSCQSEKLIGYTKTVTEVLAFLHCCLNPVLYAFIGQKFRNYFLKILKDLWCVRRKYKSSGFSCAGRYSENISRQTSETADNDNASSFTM
Protocol: as §1, §2

[5] = biological target: T5, hsCCR6/mmECL2 (human/mouse hybrid, UniProt P51684 1-374); experiment: flow cytometry on transfected cells (Human Nter, only loop 2 drawn black as murine), 10 µg/ml, PE-labelled secondary antibody
T5 construct: also called second mutant; pT1-hsCCR6/mmECL2
T5 chain: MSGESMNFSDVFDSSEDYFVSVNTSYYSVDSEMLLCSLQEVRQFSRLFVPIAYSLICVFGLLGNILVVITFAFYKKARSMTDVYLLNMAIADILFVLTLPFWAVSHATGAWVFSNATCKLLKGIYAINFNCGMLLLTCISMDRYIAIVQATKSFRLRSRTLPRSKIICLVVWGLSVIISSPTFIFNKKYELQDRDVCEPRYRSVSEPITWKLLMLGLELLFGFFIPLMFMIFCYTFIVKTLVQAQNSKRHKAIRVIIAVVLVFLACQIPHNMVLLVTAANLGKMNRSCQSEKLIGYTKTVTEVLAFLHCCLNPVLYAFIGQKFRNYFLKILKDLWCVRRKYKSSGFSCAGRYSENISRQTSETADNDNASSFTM
Protocol: as §1, §2

[6] = biological target: T6, hsCCR6/mmECL1 (human/mouse hybrid, UniProt P51684 1-374); experiment: flow cytometry on transfected cells (Human Nter, Murine loop 1, Human loops 2 and 3), 10 µg/ml, PE-labelled secondary antibody
T6 construct: also called first mutant; pT1-hsCCR6/mmECL1
T6 chain: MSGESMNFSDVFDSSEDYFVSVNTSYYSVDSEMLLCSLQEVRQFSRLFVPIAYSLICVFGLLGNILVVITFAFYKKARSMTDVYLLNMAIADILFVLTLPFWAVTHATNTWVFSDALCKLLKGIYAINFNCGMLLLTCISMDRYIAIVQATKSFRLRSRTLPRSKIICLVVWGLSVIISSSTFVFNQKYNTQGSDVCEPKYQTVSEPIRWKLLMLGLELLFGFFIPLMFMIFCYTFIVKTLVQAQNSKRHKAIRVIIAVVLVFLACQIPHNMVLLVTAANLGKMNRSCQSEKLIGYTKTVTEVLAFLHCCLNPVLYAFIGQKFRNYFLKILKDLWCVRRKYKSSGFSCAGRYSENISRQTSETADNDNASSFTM
Protocol: as §1, §2

B1: chimeric 4H11 antibody (antibody, human IgG1, kappa, V domains shown)
VH: EVKLVESGGGLVQPGGSLKLSCATSGFSFSDYYMYWIRQTPEKRLEWVAYITNGGITYYPDTVKGRFTISRDNAKNTLYLQMSRLRSEDTAMYYCTSPLRGAWFAYWGQGTLVTVSS
VL: DVIMTQSPLSLPVSLGDQASISCRSSQSIVHSNGNTYLEWYLQKPGQSPKLLIYKVSNRFSGVPDRFSGSGSGTDFTLKISRVEAEDLGLYYCFQGSHVPLTFGAGTKLEIKR
notes: also called chimeric 4H11 mAb; 4H11 chimeric antibody
- binding result [1]: binds
- binding result [2]: binds
- binding result [3]: no binding
- binding result [4]: no binding (tested: 10 µg/ml)
- binding result [5]: binds
- binding result [6]: binds
